Reference: paper doi:10.1101/2020.12.19.423584 (bioRxiv, 2020)

Target: purified SARS-CoV-2 N protein produced in pupae (SARS-CoV-2, UniProt P0DTC9 1-419)
Test: ELISA

B1: Niemann-Pick type C1 (NPC1) receptor, endogenous human (natural protein)
chain: QSCVWYGECGIAYGDKRYNCEYSGPPKPLPKDGYDLVQELCPGFFFGNVSLCCDVRQLQTLKDNLQLPLQFLSRCPSCFYNLLNLFCELTCSPRQSQFLNVTATEDYVDPVTNQTKTNVKELQYYVGQSFANAMYNACRDVEAPSSNDKALGLLCGKDADACNATNWIEYMFNKDNGQAPFTITPVFSDFPVHGMEPMNNATKGCDESVDEVTAPCSCQDCSIVCGPKPQPPPPPAPWTILGLDAMYVIMWITYMAFLLVFFGAFFAVWCYRKRYFVSEYTPIDSNIAFSVNASDKGEASCCDPVSAAFEGCLRRLFTRWGSFCVRNPGCVIFFSLVFITACSSGLVFVRVTTNPVDLWSAPSSQARLEKEYFDQHFGPFFRTEQLIIRAPLTDKHIYQPYPSGADVPFGPPLDIQILHQVLDLQIAIENITASYDNETVTLQDICLAPLSPYNTNCTILSVLNYFQNSHSVLDHKKGDDFFVYADYHTHFLYCVRAPASLNDTSLLHDPCLGTFGGPVFPWLVLGGYDDQNYNNATALVITFPVNNYYNDTEKLQRAQAWEKEFINFVKNYKNPNLTISFTAERSIEDELNRESDSDVFTVVISYAIMFLYISLALGHMKSCRRLLVDSKVSLGIAGILIVLSSVACSLGVFSYIGLPLTLIVIEVIPFLVLAVGVDNIFILVQAYQRDERLQGETLDQQLGRVLGEVAPSMFLSSFSETVAFFLGALSVMPAVHTFSLFAGLAVFIDFLLQITCFVSLLGLDIKRQEKNRLDIFCCVRGAEDGTSVQASESCLFRFFKNSYSPLLLKDWMRPIVIAIFVGVLSFSIAVLNKVDIGLDQSLSMPDDSYMVDYFKSISQYLHAGPPVYFVLEEGHDYTSSKGQNMVCGGMGCNNDSLVQQIFNAAQLDNYTRIGFAPSSWIDDYFDWVKPQSSCCRVDNITDQFCNASVVDPACVRCRPLTPEGKQRPQGGDFMRFLPMFLSDNPNPKCGKGGHAAYSSAVNILLGHGTRVGATYFMTYHTVLQTSADFIDALKKARLIASNVTETMGINGSAYRVFPYSVFYVFYEQYLTIIDDTIFNLGVSLGAIFLVTMVLLGCELWSAVIMCATIAMVLVNMFGVMWLWGISLNAVSLVNLVMSCGISVEFCSHITRAFTVSMKGSRVERAEEALAHMGSSVFSGITLTKFGGIVVLAFAKSQIFQIFYFRMYLAMVLLGATHGLIFLPVLLSYIGPSVNKAKSCATEERYKGTERERLLNF
  binding result: binds
